Measured values from patent US20230203202A1 (DRAGONFLY THERAPEUTICS, published 2023).

Tests used:
[1] = target: T1, human 5T4 on the cell surface (human, UniProt Q13641 32-420); assay: flow cytometry on H292 cells (11,000 5T4/cell), fold over background
T1 construct: whole, on cells; also called h5T4; TPBG
T1 sequence (looked up): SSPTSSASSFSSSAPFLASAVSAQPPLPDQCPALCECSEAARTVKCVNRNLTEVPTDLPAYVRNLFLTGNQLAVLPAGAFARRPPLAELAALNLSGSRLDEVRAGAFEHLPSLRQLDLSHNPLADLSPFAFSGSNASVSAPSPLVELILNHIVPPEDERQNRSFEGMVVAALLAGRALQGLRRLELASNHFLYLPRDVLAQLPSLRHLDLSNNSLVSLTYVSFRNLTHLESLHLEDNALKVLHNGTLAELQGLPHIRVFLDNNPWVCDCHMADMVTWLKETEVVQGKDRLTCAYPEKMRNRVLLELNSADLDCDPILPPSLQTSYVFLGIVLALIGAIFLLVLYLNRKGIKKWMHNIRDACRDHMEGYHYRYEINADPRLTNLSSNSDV
Experimental: (§1) The KYSE-30 and H292 human cancer cell lines, derived from esophageal squamous cell carcinoma and non-small cell lung carcinoma, respectively, were used. […] After incubation, binding patterns of the TriNKET® and mAb to 5T4+ cells were detected using a fluorophore conjugated anti-human IgG secondary antibody. Cells were analyzed by flow cytometry and fold MFI over secondary-only controls reported.

[2] = target: T1, human 5T4 on the cell surface; assay: flow cytometry on KYSE-30 cells (61,000 5T4 per cell)
[3] = target: T2, human 5T4 (SPR and epitope mapping, construct not stated) (human, UniProt Q13641 32-355, limits assumed); assay: SPR, Biacore 8K, 37 °C, TriNKET captured on anti-hFc chip, pH 6.0
T2 construct: also called h5T4
T2 sequence (looked up): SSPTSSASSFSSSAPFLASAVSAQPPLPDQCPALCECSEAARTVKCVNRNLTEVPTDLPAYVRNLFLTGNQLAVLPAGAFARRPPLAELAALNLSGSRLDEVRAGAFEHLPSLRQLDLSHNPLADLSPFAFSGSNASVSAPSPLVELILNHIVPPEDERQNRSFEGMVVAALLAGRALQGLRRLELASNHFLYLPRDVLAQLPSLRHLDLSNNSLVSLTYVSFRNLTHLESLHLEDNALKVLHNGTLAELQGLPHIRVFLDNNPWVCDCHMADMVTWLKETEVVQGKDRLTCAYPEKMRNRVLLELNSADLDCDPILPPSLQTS
Experimental: Briefly, SPR was performed using a Biacore 8K instrument at physiological temperature of 37° C. Briefly, human Fc specific antibodies were covalently immobilized at a density of about 8000-10000 resonance units (RU) on carboxy methyl dextran matrix of a CM5 biosensor chip to create an anti-hFc IgG chip. Samples were injected on the anti-hFc IgG chip at a flow rate of 10 μL/min for 60 seconds. Protein was serially diluted (300 nM-0.14 nM) in three-fold dilutions with running buffer and injected at a flow rate of 30 μl/min over the captured test articles. Association was monitored for 240-300 seconds, and dissociation was monitored for 300-900 seconds. Surfaces were regenerated between cycles with three pulses of 10 mM glycine-HCl (pH 1.7) injected for 20 seconds at 100 μL/min.

[4] = target: T1, human 5T4 on the cell surface; assay: flow cytometry on H1703 cells (15,000 5T4 per cell)
[5] = target: T1, human 5T4 on the cell surface; assay: flow cytometry on HT29 cells (5,000 5T4 per cell)
[6] = target: T2, human 5T4 (SPR and epitope mapping, …); assay: SPR, kinetics fit
[7] = target: T2, human 5T4 (SPR and epitope mapping, …); assay: SPR, h5T4 binding; sample stressed in HST pH 6, 7 days 50 °C
[8] = target: T1, human 5T4 on the cell surface; assay: cell-based or functional assay
[9] = target: T1, human 5T4 on the cell surface; assay: flow cytometry on H292 cells (12,000 5T4 per cell)
[10] = target: T2, human 5T4 (SPR and epitope mapping, …); assay: SPR, h5T4 binding; sample stressed in Tris pH 9, 7 days 40 °C
[11] = target: T1, human 5T4 on the cell surface; assay: cell-based or functional assay; remark: listed apart in the source
[12] = target: T2, human 5T4 (SPR and epitope mapping, …); assay: SPR, h5T4 binding; control sample, HST pH 6, 7 days 4 °C
[13] = target: T2, human 5T4 (SPR and epitope mapping, …); assay: SPR, h5T4 binding; sample stressed in Tris pH 9, 7 days 40 °C; heterogeneous binding, approximate value
[14] = target: T1, human 5T4 on the cell surface; assay: flow cytometry on KYSE-30 cells (61,000 5T4/cell), fold over background
Experimental: as §1

[15] = target: T1, human 5T4 on the cell surface; assay: flow cytometry on Detroit 562 cells (21,000 5T4 per cell)

B1: AB1310/AB1783-TriNKET® (bispecific antibody, human IgG1, kappa)
chain: DIQLTQSPSSLSASVGDRVTITCRASQSVTTSNYNYMHWFQQKPGKAPKLLIKFASNLESGVPSRFSGSGSGTDFTLTISSLQPEDFATYYCQHSWEIPWTFGCGTKVEIKGGGGSGGGGSGGGGSGGGGSEVQLVESGGGLVKPGGSLRLSCAASRFTFSDFGMHWVRQAPGKCLEWVSYISSGSSTIYYADSVKGRFTISRDNAKNSLYLQMNSLRAEDTAVYYCASSQSYYRGTLDYWGQGTTVTVSSASDKTHTCPPCPAPELLGGPSVFLFPPKPKDTLMISRTPEVTCVVVDVSHEDPEVKFNWYVDGVEVHNAKTKPREEQYNSTYRVVSVLTVLHQDWLNGKEYKCKVSNKALPAPIEKTISKAKGQPREPRVYTLPPCRDELTKNQVSLTCLVKGFYPSDIAVEWESNGQPENNYKTTPPVLVSDGSFTLYSKLTVDKSRWQQGNVFSCSVMHEALHNHYTQKSLSLSPG
heavy: EVQLVESGGGLVKPGGSLRLSCAASGFTFSSYSMNWVRQAPGKGLEWVSSISSSSSYIYYADSVKGRFTISRDNAKNSLYLQMNSLRAEDTAVYYCARGAPIGAAAGWFDPWGQGTLVTVSSASTKGPSVFPLAPSSKSTSGGTAALGCLVKDYFPEPVTVSWNSGALTSGVHTFPAVLQSSGLYSLSSVVTVPSSSLGTQTYICNVNHKPSNTKVDKKVEPKSCDKTHTCPPCPAPELLGGPSVFLFPPKPKDTLMISRTPEVTCVVVDVSHEDPEVKFNWYVDGVEVHNAKTKPREEQYNSTYRVVSVLTVLHQDWLNGKEYKCKVSNKALPAPIEKTISKAKGQPREPQVCTLPPSRDELTENQVSLTCLVKGFYPSDIAVEWESNGQPENNYKTTPPVLDSDGSFFLYSWLTVDKSRWQQGNVFSCSVMHEALHNHYTQKSLSLSPG
light: DIQMTQSPSSVSASVGDRVTITCRASQGISSWLAWYQQKPGKAPKLLIYAASSLQSGVPSRFSGSGSGTDFTLTISSLQPEDFATYYCQQGVSFPRTFGGGTKVEIKRTVAAPSVFIFPPSDEQLKSGTASVVCLLNNFYPREAKVQWKVDNALQSGNSQESVTEQDSKDSTYSLSSTLTLSKADYEKHKVYACEVTHQGLSSPVTKSFNRGEC
notes: also called AB1310-TriNKET®; AB1783 10F10 F3′ LH H(T62S) CHO opt
B1 was tested. Which “EC50 (read off the curve)” value [1] did it give?
Its value is about 3 nM.

What about the EC50 [2] of the same binder?
Its EC50 is 2.5 nM.

What about the Kd [3] of the same binder?
The Kd was 9.4 nM.

And the koff [3]?
The koff was 0.0012 s⁻¹.

What about the kon [3] of the same binder?
The kon was 120000 M⁻¹ s⁻¹.

And the EC50 [4]?
Its EC50 is 2.6 nM.

What about the EC50 [5] of the same binder?
Its EC50 is 4.1 nM.

And the Kd [6]?
The Kd was 6.1 nM.

What about the koff [6] of the same binder?
The koff was 0.00077 s⁻¹.

And the kon [6]?
Its kon is 130000 M⁻¹ s⁻¹.

What about the Kd [7] of the same binder?
The Kd was 7.6 nM.

What about the koff [7] of the same binder?
Its koff is 0.00088 s⁻¹.

And the kon [7]?
Its kon is 110000 M⁻¹ s⁻¹.

What about the “long-term NK cell-mediated inhibition of HCT 116 cells (Incucyte, 72 h), EC50” value [8] of the same binder?
The value was 0.16 nM.

What about the “long-term NK cell-mediated inhibition of HT-29 cells (Incucyte, 72 h), EC50” value [8] of the same binder?
Its value is 1.3 nM.

And the “long-term NK cell-mediated inhibition of KYSE-30 cells (Incucyte, 72 h), EC50” value [8]?
Its value is 0.087 nM.

What about the “long-term NK cell-mediated inhibition of NCI-H292 cells (Incucyte, 72 h), EC50” value [8] of the same binder?
Its value is 0.37 nM.

And the EC50 [9]?
The EC50 was 1.5 nM.

What about the koff [10] of the same binder?
Its koff is 0.0016 s⁻¹.

And the kon [10]?
Its kon is 110000 M⁻¹ s⁻¹.

And the “NK cell-mediated lysis of primary CAFs, EC50 (first column pair)” value [11]?
The value was 0.081 nM.

And the “NK cell-mediated lysis of primary CAFs, EC50 (second column pair)” value [11]?
The value was 0.19 nM.

What about the Kd [12] of the same binder?
The Kd was 7.8 nM.

What about the koff [12] of the same binder?
The koff was 0.00091 s⁻¹.

What about the kon [12] of the same binder?
Its kon is 120000 M⁻¹ s⁻¹.

What about the Kd [13] of the same binder?
Its Kd is about 15.1 nM.

And the “EC50 (read off the curve)” value [14]?
The value was about 2 nM.

And the EC50 [15]?
The EC50 was 2.7 nM.
